According to publication PMC10296906, “GPCR Binding and JNK3 Activation by Arrestin-3 Have Different Structural Requirements” (Cells, 2023):

Target: T1, LgBiT-tagged human M2 muscarinic acetylcholine receptor (human, UniProt P08172 1-466)
T1 construct: M2 muscarinic acetylcholine receptor, human, Gi-coupled; stimulated with 10 µM carbachol; also called M2R; source: HEK293 arrestin-2/3 knockout cells, transfected (pcDNA3), in live cells; not shown: LgBiT (17.6 kDa, with the 4-amino acid linker APAG), C-terminal, kept
T1 sequence (looked up): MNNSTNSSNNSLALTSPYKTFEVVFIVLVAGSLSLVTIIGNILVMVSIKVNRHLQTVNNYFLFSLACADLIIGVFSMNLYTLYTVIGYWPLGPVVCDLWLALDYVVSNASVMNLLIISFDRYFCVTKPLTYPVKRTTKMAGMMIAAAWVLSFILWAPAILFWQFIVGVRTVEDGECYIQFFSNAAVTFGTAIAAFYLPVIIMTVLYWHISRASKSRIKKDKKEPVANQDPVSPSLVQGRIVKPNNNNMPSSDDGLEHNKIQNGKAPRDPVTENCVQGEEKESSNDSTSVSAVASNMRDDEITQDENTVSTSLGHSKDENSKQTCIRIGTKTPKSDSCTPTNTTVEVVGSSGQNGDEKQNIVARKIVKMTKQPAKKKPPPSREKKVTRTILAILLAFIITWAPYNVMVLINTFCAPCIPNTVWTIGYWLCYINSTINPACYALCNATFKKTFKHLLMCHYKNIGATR
Assay: split reporter (BiFC, NanoBiT); NanoBiT complementation in live HEK293 arrestin-2/3 KO cells: SmBiT-arrestin-3 and receptor-LgBiT co-expressed; luminescence read 20 min with nanoGlo substrate, then agonist added (10 µM isoproterenol for β2AR, 10 µM carbachol for M2R) and read 40 min; signal normalized to the basal signal without agonist
Conditions: partners not purified

agonist-induced luminescence, fold over basal: ~8 fold
B1: SmBiT-tagged WT arrestin-3 (natural protein, UniProt P32120-2 1-409, looked up)
chain: MGEKPGTRVFKKSSPNCKLTVYLGKRDFVDHLDKVDPVDGVVLVDPDYLKDRKVFVTLTCAFRYGREDLDVLGLSFRKDLFIANYQAFPPTPNPPRPPTRLQERLLRKLGQHAHPFFFTIPQNLPCSVTLQPGPEDTGKACGVDFEIRAFCAKSLEEKSHKRNSVRLVIRKVQFAPEKPGPQPSAETTRHFLMSDRSLHLEASLDKELYYHGEPLNVNVHVTNNSTKTVKKIKVSVRQYADICLFSTAQYKCPVAQVEQDDQVSPSSTFCKVYTITPLLSNNREKRGLALDGKLKHEDTNLASSTIVKEGANKEVLGILVSYRVKVKLVVSRGGDVSVELPFVLMHPKPHDHIALPRPQSAAPETDAPVDTNLIEFETNYATDDDIVFEDFARLRLKGLKDEDYDDQFC
notes: also called arr3; WT arr3; source: HEK293 arrestin-2/3 knockout cells, transfected (pcDNA3), in live cells
